According to US20180037651A1 (Janssen / Centocor, published 2018):

Target: T1, human GPRC5D (human, UniProt Q9NZD1 1-345)
T1 construct: on transfected HEK293/RBL cells or endogenous on myeloma cells (H929, MM1R, OPM2, LP1, JIM3, patient plasma cells); also called G protein-coupled receptor class C group 5 member D; hGPRC5D
Assay: FACS, human GPRC5D cells

T1 sequence (Q9NZD1 whole entry): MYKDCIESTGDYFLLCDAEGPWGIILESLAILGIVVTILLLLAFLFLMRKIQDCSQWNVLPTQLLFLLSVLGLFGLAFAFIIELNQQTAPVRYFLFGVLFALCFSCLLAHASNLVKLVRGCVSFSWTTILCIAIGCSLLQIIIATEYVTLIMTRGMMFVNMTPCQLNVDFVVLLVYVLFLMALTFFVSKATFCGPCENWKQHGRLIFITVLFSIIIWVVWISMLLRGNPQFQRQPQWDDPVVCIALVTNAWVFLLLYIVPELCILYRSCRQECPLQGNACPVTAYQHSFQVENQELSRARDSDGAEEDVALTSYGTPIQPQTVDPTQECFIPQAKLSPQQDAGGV

B1: GC5B472 (antibody, V domains shown)
VH: EVQLVQSGAEVKKPGESLKISCKGSGYSFTSYVIGWVRQMPGKGLEWMGIIYPGASDTRYSPSFQGQVTISADKSISTAYLQWSSLKASDTAMYYCARVYSFGGRHKALFDYWGQGTLVTVSS
VL: EIVLTQSPATLSLSPGERATLSCRASQSVSSYLAWYQQKPGQAPRLLIYDASNRATGIPARFSGSGSGTDFTLTISSLEPEDFAVYYCQQRSNWPLTFGQGTKVEIK
notes: GC5B164 PTM variant; also called GC5H277
- MFI: 1000 to 10000 mfi

B2: GC5B473 (antibody, V domains shown)
VH: EVQLVQSGAEVKKPGESLKISCKGSGYSFTSYFIGWVRQMPGKGLEWMGIIYPGASDTRYSPSFQGQVTISADKSISTAYLQWSSLKASDTAMYYCARVYSFGGRHKALFDYWGQGTLVTVSS
VL: EIVLTQSPATLSLSPGERATLSCRASQSVSSYLAWYQQKPGQAPRLLIYDASNRATGIPARFSGSGSGTDFTLTISSLEPEDFAVYYCQQRSNWPLTFGQGTKVEIK
notes: GC5B164 PTM variant; also called GC5H276
- MFI: > 10000 mfi

B3: GC5B474 (antibody, V domains shown)
VH: EVQLVQSGAEVKKPGESLKISCKGSGYSFTSYGIGWVRQMPGKGLEWMGIIYPGASDTRYSPSFQGQVTISADKSISTAYLQWSSLKASDTAMYYCARVYSFGGRHKALFDYWGQGTLVTVSS
VL: EIVLTQSPATLSLSPGERATLSCRASQSVSSYLAWYQQKPGQAPRLLIYDASNRATGIPARFSGSGSGTDFTLTISSLEPEDFAVYYCQQRSNWPLTFGQGTKVEIK
notes: GC5B164 PTM variant; also called GC5H275
- MFI: 1000 to 10000 mfi

B4: GC5B475 (antibody, V domains shown)
VH: EVQLVQSGAEVKKPGESLKISCKGSGYSFTSYAIGWVRQMPGKGLEWMGIIYPGASDTRYSPSFQGQVTISADKSISTAYLQWSSLKASDTAMYYCARVYSFGGRHKALFDYWGQGTLVTVSS
VL: EIVLTQSPATLSLSPGERATLSCRASQSVSSYLAWYQQKPGQAPRLLIYDASNRATGIPARFSGSGSGTDFTLTISSLEPEDFAVYYCQQRSNWPLTFGQGTKVEIK
notes: GC5B164 PTM variant; also called GC5H274
- MFI: 1000 to 10000 mfi

B5: GC5B476 (antibody, V domains shown)
VH: EVQLVQSGAEVKKPGESLKISCKGSGYSFTSYYIGWVRQMPGKGLEWMGIIYPGSSDTRYSPSFQGQVTISADKSISTAYLQWSSLKASDTAMYYCARVYSFGGRHKALFDYWGQGTLVTVSS
VL: EIVLTQSPATLSLSPGERATLSCRASQSVSSYLAWYQQKPGQAPRLLIYDASNRATGIPARFSGSGSGTDFTLTISSLEPEDFAVYYCQQRSNWPLTFGQGTKVEIK
notes: GC5B164 PTM variant; also called GC5H273
- MFI: > 10000 mfi

B6: GC5B477 (antibody, V domains shown)
VH: EVQLVQSGAEVKKPGESLKISCKGSGYSFTSYVIGWVRQMPGKGLEWMGIIYPGSSDTRYSPSFQGQVTISADKSISTAYLQWSSLKASDTAMYYCARVYSFGGRHKALFDYWGQGTLVTVSS
VL: EIVLTQSPATLSLSPGERATLSCRASQSVSSYLAWYQQKPGQAPRLLIYDASNRATGIPARFSGSGSGTDFTLTISSLEPEDFAVYYCQQRSNWPLTFGQGTKVEIK
notes: GC5B164 PTM variant; also called GC5H272
- MFI: 1000 to 10000 mfi

B7: GC5B478 (antibody, V domains shown)
VH: EVQLVQSGAEVKKPGESLKISCKGSGYSFTSYFIGWVRQMPGKGLEWMGIIYPGSSDTRYSPSFQGQVTISADKSISTAYLQWSSLKASDTAMYYCARVYSFGGRHKALFDYWGQGTLVTVSS
VL: EIVLTQSPATLSLSPGERATLSCRASQSVSSYLAWYQQKPGQAPRLLIYDASNRATGIPARFSGSGSGTDFTLTISSLEPEDFAVYYCQQRSNWPLTFGQGTKVEIK
notes: GC5B164 PTM variant; also called GC5H271
- MFI: > 10000 mfi

B8: GC5B479 (antibody, V domains shown)
VH: EVQLVQSGAEVKKPGESLKISCKGSGYSFTSYGIGWVRQMPGKGLEWMGIIYPGSSDTRYSPSFQGQVTISADKSISTAYLQWSSLKASDTAMYYCARVYSFGGRHKALFDYWGQGTLVTVSS
VL: EIVLTQSPATLSLSPGERATLSCRASQSVSSYLAWYQQKPGQAPRLLIYDASNRATGIPARFSGSGSGTDFTLTISSLEPEDFAVYYCQQRSNWPLTFGQGTKVEIK
notes: GC5B164 PTM variant; also called GC5H270
- MFI: 1000 to 10000 mfi

B9: GC5B480 (antibody, V domains shown)
VH: EVQLVQSGAEVKKPGESLKISCKGSGYSFTSYAIGWVRQMPGKGLEWMGIIYPGSSDTRYSPSFQGQVTISADKSISTAYLQWSSLKASDTAMYYCARVYSFGGRHKALFDYWGQGTLVTVSS
VL: EIVLTQSPATLSLSPGERATLSCRASQSVSSYLAWYQQKPGQAPRLLIYDASNRATGIPARFSGSGSGTDFTLTISSLEPEDFAVYYCQQRSNWPLTFGQGTKVEIK
notes: GC5B164 PTM variant; also called GC5H269
- MFI: 1000 to 10000 mfi

B10: GC5B481 (antibody, V domains shown)
VH: EVQLVQSGAEVKKPGESLKISCKGSGYSFTSYYIGWVRQMPGKGLEWMGIIYPGKSDTRYSPSFQGQVTISADKSISTAYLQWSSLKASDTAMYYCARVYSFGGRHKALFDYWGQGTLVTVSS
VL: EIVLTQSPATLSLSPGERATLSCRASQSVSSYLAWYQQKPGQAPRLLIYDASNRATGIPARFSGSGSGTDFTLTISSLEPEDFAVYYCQQRSNWPLTFGQGTKVEIK
notes: GC5B164 PTM variant; also called GC5H268
- MFI: > 10000 mfi

B11: GC5B482 (antibody, V domains shown)
VH: EVQLVQSGAEVKKPGESLKISCKGSGYSFTSYVIGWVRQMPGKGLEWMGIIYPGKSDTRYSPSFQGQVTISADKSISTAYLQWSSLKASDTAMYYCARVYSFGGRHKALFDYWGQGTLVTVSS
VL: EIVLTQSPATLSLSPGERATLSCRASQSVSSYLAWYQQKPGQAPRLLIYDASNRATGIPARFSGSGSGTDFTLTISSLEPEDFAVYYCQQRSNWPLTFGQGTKVEIK
notes: GC5B164 PTM variant; also called GC5H267
- MFI: > 10000 mfi

B12: GC5B483 (antibody, IgG4, V domains shown)
VH: EVQLVQSGAEVKKPGESLKISCKGSGYSFTSYFIGWVRQMPGKGLEWMGIIYPGKSDTRYSPSFQGQVTISADKSISTAYLQWSSLKASDTAMYYCARVYSFGGRHKALFDYWGQGTLVTVSS
VL: EIVLTQSPATLSLSPGERATLSCRASQSVSSYLAWYQQKPGQAPRLLIYDASNRATGIPARFSGSGSGTDFTLTISSLEPEDFAVYYCQQRSNWPLTFGQGTKVEIK
notes: GC5B164 PTM variant D55K, W33F; IgG4 S228P, L234A, L235A; also called GC5H266
- MFI: > 10000 mfi

B13: GC5B484 (antibody, V domains shown)
VH: EVQLVQSGAEVKKPGESLKISCKGSGYSFTSYGIGWVRQMPGKGLEWMGIIYPGKSDTRYSPSFQGQVTISADKSISTAYLQWSSLKASDTAMYYCARVYSFGGRHKALFDYWGQGTLVTVSS
VL: EIVLTQSPATLSLSPGERATLSCRASQSVSSYLAWYQQKPGQAPRLLIYDASNRATGIPARFSGSGSGTDFTLTISSLEPEDFAVYYCQQRSNWPLTFGQGTKVEIK
notes: GC5B164 PTM variant; also called GC5H265
- MFI: 1000 to 10000 mfi

B14: GC5B485 (antibody, V domains shown)
VH: EVQLVQSGAEVKKPGESLKISCKGSGYSFTSYAIGWVRQMPGKGLEWMGIIYPGKSDTRYSPSFQGQVTISADKSISTAYLQWSSLKASDTAMYYCARVYSFGGRHKALFDYWGQGTLVTVSS
VL: EIVLTQSPATLSLSPGERATLSCRASQSVSSYLAWYQQKPGQAPRLLIYDASNRATGIPARFSGSGSGTDFTLTISSLEPEDFAVYYCQQRSNWPLTFGQGTKVEIK
notes: GC5B164 PTM variant; also called GC5H264
- MFI: 1000 to 10000 mfi

B15: GC5B486 (antibody, V domains shown)
VH: EVQLVQSGAEVKKPGESLKISCKGSGYSFTSYYIGWVRQMPGKGLEWMGIIYPGESDTRYSPSFQGQVTISADKSISTAYLQWSSLKASDTAMYYCARVYSFGGRHKALFDYWGQGTLVTVSS
VL: EIVLTQSPATLSLSPGERATLSCRASQSVSSYLAWYQQKPGQAPRLLIYDASNRATGIPARFSGSGSGTDFTLTISSLEPEDFAVYYCQQRSNWPLTFGQGTKVEIK
notes: GC5B164 PTM variant; also called GC5H263
- MFI: > 10000 mfi

B16: GC5B487 (antibody, V domains shown)
VH: EVQLVQSGAEVKKPGESLKISCKGSGYSFTSYVIGWVRQMPGKGLEWMGIIYPGESDTRYSPSFQGQVTISADKSISTAYLQWSSLKASDTAMYYCARVYSFGGRHKALFDYWGQGTLVTVSS
VL: EIVLTQSPATLSLSPGERATLSCRASQSVSSYLAWYQQKPGQAPRLLIYDASNRATGIPARFSGSGSGTDFTLTISSLEPEDFAVYYCQQRSNWPLTFGQGTKVEIK
notes: GC5B164 PTM variant; also called GC5H262
- MFI: 1000 to 10000 mfi

B17: GC5B488 (antibody, V domains shown)
VH: EVQLVQSGAEVKKPGESLKISCKGSGYSFTSYFIGWVRQMPGKGLEWMGIIYPGESDTRYSPSFQGQVTISADKSISTAYLQWSSLKASDTAMYYCARVYSFGGRHKALFDYWGQGTLVTVSS
VL: EIVLTQSPATLSLSPGERATLSCRASQSVSSYLAWYQQKPGQAPRLLIYDASNRATGIPARFSGSGSGTDFTLTISSLEPEDFAVYYCQQRSNWPLTFGQGTKVEIK
notes: GC5B164 PTM variant; also called GC5H261
- MFI: > 10000 mfi

B18: GC5B490 (antibody, V domains shown)
VH: EVQLVQSGAEVKKPGESLKISCKGSGYSFTSYAIGWVRQMPGKGLEWMGIIYPGESDTRYSPSFQGQVTISADKSISTAYLQWSSLKASDTAMYYCARVYSFGGRHKALFDYWGQGTLVTVSS
VL: EIVLTQSPATLSLSPGERATLSCRASQSVSSYLAWYQQKPGQAPRLLIYDASNRATGIPARFSGSGSGTDFTLTISSLEPEDFAVYYCQQRSNWPLTFGQGTKVEIK
notes: GC5B164 PTM variant; also called GC5H259
- MFI: 1000 to 10000 mfi

B19: GC5B491 (antibody, V domains shown)
VH: EVQLVQSGAEVKKPGESLKISCKGSGYSFTSYYIGWVRQMPGKGLEWMGIIYPGYSDTRYSPSFQGQVTISADKSISTAYLQWSSLKASDTAMYYCARVYSFGGRHKALFDYWGQGTLVTVSS
VL: EIVLTQSPATLSLSPGERATLSCRASQSVSSYLAWYQQKPGQAPRLLIYDASNRATGIPARFSGSGSGTDFTLTISSLEPEDFAVYYCQQRSNWPLTFGQGTKVEIK
notes: GC5B164 PTM variant; also called GC5H258
- MFI: > 10000 mfi

B20: GC5B492 (antibody, V domains shown)
VH: EVQLVQSGAEVKKPGESLKISCKGSGYSFTSYVIGWVRQMPGKGLEWMGIIYPGYSDTRYSPSFQGQVTISADKSISTAYLQWSSLKASDTAMYYCARVYSFGGRHKALFDYWGQGTLVTVSS
VL: EIVLTQSPATLSLSPGERATLSCRASQSVSSYLAWYQQKPGQAPRLLIYDASNRATGIPARFSGSGSGTDFTLTISSLEPEDFAVYYCQQRSNWPLTFGQGTKVEIK
notes: GC5B164 PTM variant; also called GC5H257
- MFI: > 10000 mfi

B21: GC5B493 (antibody, V domains shown)
VH: EVQLVQSGAEVKKPGESLKISCKGSGYSFTSYFIGWVRQMPGKGLEWMGIIYPGYSDTRYSPSFQGQVTISADKSISTAYLQWSSLKASDTAMYYCARVYSFGGRHKALFDYWGQGTLVTVSS
VL: EIVLTQSPATLSLSPGERATLSCRASQSVSSYLAWYQQKPGQAPRLLIYDASNRATGIPARFSGSGSGTDFTLTISSLEPEDFAVYYCQQRSNWPLTFGQGTKVEIK
notes: GC5B164 PTM variant; also called GC5H256
- MFI: > 10000 mfi

B22: GC5B494 (antibody, V domains shown)
VH: EVQLVQSGAEVKKPGESLKISCKGSGYSFTSYGIGWVRQMPGKGLEWMGIIYPGYSDTRYSPSFQGQVTISADKSISTAYLQWSSLKASDTAMYYCARVYSFGGRHKALFDYWGQGTLVTVSS
VL: EIVLTQSPATLSLSPGERATLSCRASQSVSSYLAWYQQKPGQAPRLLIYDASNRATGIPARFSGSGSGTDFTLTISSLEPEDFAVYYCQQRSNWPLTFGQGTKVEIK
notes: GC5B164 PTM variant; also called GC5H255
- MFI: 1000 to 10000 mfi
